The text below walks through data of patent US20240317868A1 (Boehringer Ingelheim, published 2024).

One assay has as its target T1, human IL1RAP (human, UniProt Q9NPH3 21-367, limits assumed, biotinylated in the ELISA screens (site not stated)).
T1 construct: also called huIL1RAP; IL1RAP antigen
T1 sequence (looked up): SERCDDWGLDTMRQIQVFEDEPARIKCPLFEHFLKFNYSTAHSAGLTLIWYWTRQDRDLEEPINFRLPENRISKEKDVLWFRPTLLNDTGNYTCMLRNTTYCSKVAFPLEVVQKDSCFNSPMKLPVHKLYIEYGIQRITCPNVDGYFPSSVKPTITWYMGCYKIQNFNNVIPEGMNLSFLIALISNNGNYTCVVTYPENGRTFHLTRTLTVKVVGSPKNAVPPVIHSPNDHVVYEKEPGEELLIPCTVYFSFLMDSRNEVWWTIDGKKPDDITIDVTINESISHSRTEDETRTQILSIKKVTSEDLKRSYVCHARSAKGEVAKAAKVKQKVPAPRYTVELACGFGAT
Put plainly: ELISA of point mutant IgG (light chain mutant with the parental chimeric heavy chain, CHO-E expression), one bar each, concentration not given. The text has this: For light chain 13 variants (T25A, E27Q, N28S, N30S, Y50A, K52S, T53Y, A55Q, E56S, H90Q, H91S, G93S and S95P) and 19 heavy chain variants (Y27G, I28T, L30S, T31S, W33Y, M34I, N35S, Q50R, F521, A541, S55L, D56G, S57I, T58A, N61A, E62Q, M63K, K65Q and D66G) were generated separately in the vector pTT5 (See FIG. 3A/B). The light chain mutants were paired with the parental chimeric heavy chain and heavy chain mutants were paired with parental chimeric light chain for expression analysis in CHO-E cells for 7 days. The resulting variants were evaluated for binding in ELISA experiments and compared to the parental chimeric IgG which has mouse variable region but human constant regions. For light chain variants, six point mutants VK-T25A, E27Q, N28S, N30S, K52S and T53Y depicted binding similar to chimeric IgG (+10% control; FIG. 3A) while for heavy chain […] point mutants VH-I28T, L30S, M34I, N35S, D56G, T58A, N61A, E62Q, M63K, K65Q and D66G depicted similar binding as chimeric IgG (+10% control; FIG. 3B).
In general terms: In an ELISA, binding on a coated surface is turned into a signal by an enzyme label.

The target in assay [1] is human IL1RAP on cells (human) (UniProt Q9NPH3). Put plainly: cell-based or functional assay.

B1: GO11 chimeric IgG, light chain point mutant VK-E27Q (antibody, V domains shown)
VH: QVHLQQSGPELVRPGTSVKISCEASGYIFLTYWMNWVKQRPGQGLEWIGQIFPASDSTYYNEMFKDKARFTVDKSSSTAYMQFSSLTSEDTAVYFCARSGPYSYYAGGYALDYWGQGTSVTVSS
VL: DIQMTQSPASLSASVGETVTITCRTSQNINSYLAWYQQKQGKSPQLLVHYAKTLAEGVPSRFSGSGSGTQFSLKINSLKPEDFGSYYCQHHYGTSLTFGAGTKLELK
notes: Light chain mutant paired with the parental chimeric heavy chain; IgG backbone, expressed in CHO-E
Regarding B1, in the assay with human IL1RAP, the binding result is “binds”.

B2: VK-Y50A (antibody, V domains shown)
VH: QVHLQQSGPELVRPGTSVKISCEASGYIFLTYWMNWVKQRPGQGLEWIGQIFPASDSTYYNEMFKDKARFTVDKSSSTAYMQFSSLTSEDTAVYFCARSGPYSYYAGGYALDYWGQGTSVTVSS
VL: DIQMTQSPASLSASVGETVTITCRTSENINSYLAWYQQKQGKSPQLLVHAAKTLAEGVPSRFSGSGSGTQFSLKINSLKPEDFGSYYCQHHYGTSLTFGAGTKLELKR
notes: germlining point mutant, paired with the parental chimeric heavy chain; also called GO11 chimeric IgG, light chain point mutant Y50A; copies: 2 + 2
Consider B2, for which the binding result with human IL1RAP was “binds”.

B3: GO11 chimeric IgG, light chain point mutant VK-K52S (antibody, V domains shown)
VH: QVHLQQSGPELVRPGTSVKISCEASGYIFLTYWMNWVKQRPGQGLEWIGQIFPASDSTYYNEMFKDKARFTVDKSSSTAYMQFSSLTSEDTAVYFCARSGPYSYYAGGYALDYWGQGTSVTVSS
VL: DIQMTQSPASLSASVGETVTITCRTSENINSYLAWYQQKQGKSPQLLVHYASTLAEGVPSRFSGSGSGTQFSLKINSLKPEDFGSYYCQHHYGTSLTFGAGTKLELK
notes: as for B1
Turning to B3, the binding result with human IL1RAP was “binds”.

B4: GO11 chimeric IgG, light chain point mutant VK-N30S (antibody, V domains shown)
VH: QVHLQQSGPELVRPGTSVKISCEASGYIFLTYWMNWVKQRPGQGLEWIGQIFPASDSTYYNEMFKDKARFTVDKSSSTAYMQFSSLTSEDTAVYFCARSGPYSYYAGGYALDYWGQGTSVTVSS
VL: DIQMTQSPASLSASVGETVTITCRTSENISSYLAWYQQKQGKSPQLLVHYAKTLAEGVPSRFSGSGSGTQFSLKINSLKPEDFGSYYCQHHYGTSLTFGAGTKLELK
notes: as for B1
For the molecule B4, the binding result in the assay with human IL1RAP is “binds”.

B5: GO11 chimeric IgG, light chain point mutant VK-T25A (antibody, V domains shown)
VH: QVHLQQSGPELVRPGTSVKISCEASGYIFLTYWMNWVKQRPGQGLEWIGQIFPASDSTYYNEMFKDKARFTVDKSSSTAYMQFSSLTSEDTAVYFCARSGPYSYYAGGYALDYWGQGTSVTVSS
VL: DIQMTQSPASLSASVGETVTITCRASENINSYLAWYQQKQGKSPQLLVHYAKTLAEGVPSRFSGSGSGTQFSLKINSLKPEDFGSYYCQHHYGTSLTFGAGTKLELK
notes: as for B1
As for B5, the binding result with human IL1RAP is reported as “binds”.

B6: GO11 chimeric IgG, light chain point mutant VK-N28S (antibody, V domains shown)
VH: QVHLQQSGPELVRPGTSVKISCEASGYIFLTYWMNWVKQRPGQGLEWIGQIFPASDSTYYNEMFKDKARFTVDKSSSTAYMQFSSLTSEDTAVYFCARSGPYSYYAGGYALDYWGQGTSVTVSS
VL: DIQMTQSPASLSASVGETVTITCRTSESINSYLAWYQQKQGKSPQLLVHYAKTLAEGVPSRFSGSGSGTQFSLKINSLKPEDFGSYYCQHHYGTSLTFGAGTKLELK
notes: as for B1
Regarding B6, the binding result with human IL1RAP was “binds”.

B7: CAN04 (antibody, INN chains, looked up, V domains shown)
VH: QVQLVQSGAEVKKPGSSVKVSCKASGYAFTSSWMNWVRQAPGQGLEWMGRIYPGDGNTHYAQKFQGRVTLTADKSTSTAYMELSSLRSEDTAVYYCGEGYLDPMDYWGQGTLVTVSS
VL: DIQMTQSPSSLSASVGDRVTITCQASQGINNYLNWYQQKPGKAPKLLIHYTSGLHAGVPSRFSGSGSGTDYTLTISSLEPEDVATYYCQQYSILPWTFGGGTKVEIK
Consider B7, for which, in assay [1], the IC90 IFN-gamma release (WB), IL-33 was above 1000 nM; the IC90 IL-8 release (NCI-H292), IL1-B is above 1000 nM; the IC90 IL-8 release (NCI-H292), IL-1A is above 1000 nM; the IC90 IL-8 release (NCI-H292), IL-33 amounted to 46 nM. For the same molecule, in assay [1], the IC90 IL-8 release (NCI-H292), IL-36G was above 1000 nM; the IC90 MIP-1B release (WB), IL1-B was determined as 125 nM; the IC90 MIP-1B release (WB), IL-1A was above 1000 nM; the IC90 MIP-1B release (WB), IL-36G amounted to 43 nM. In assay [1], this molecule had an IC90 Nf-KB activation (HEK-Blue), IL1-B of 56 nM; an IC90 Nf-KB activation (HEK-Blue), IL-1A above 1000 nM; an IC90 Nf-KB activation (HEK-Blue), IL-33 above 1000 nM; an IC90 Nf-KB activation (HEK-Blue), IL-36G above 1000 nM.
